Test system: K4 kissing-loop RNA reporter
Assay: apparent KD of K4 kissing-loop reporter; higher = weaker reporter binding
Details: Eterna round: R107
Experimental: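 RNA-MaP round R107: designed RNA switches with theophylline, tryptophan, arginine or FMN aptamers are transcribed on-chip within common flanks. They are titrated with a labelled K4 kissing-loop RNA reporter in RNA-MaP buffer (100 mM Tris pH 7.5, 80 mM KCl, 4 mM MgCl2), without ligand or with the indicated ligand. Median apparent KD per design.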

[1] = input ligand: theophylline 20 uM
[2] = input ligand: tryptophan 2.4 mM
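Also: bound reporter read as fluorescence of individual clusters on recovered sequencing chips by microscopy, with normalized cluster intensities fitted with a binding model.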

Sequence | apparent KD of K4 kissing-loop reporter (input ligand: FMN 200 uM) | apparent KD of K4 kissing-loop reporter (input ligand: arginine 13.2 mM) | apparent KD of K4 kissing-loop reporter (input ligand: none) | apparent KD of K4 kissing-loop reporter [1] | apparent KD of K4 kissing-loop reporter [2]
CUCUUCUUUCUUUUAGUGAUGUUAAAUUAGCGAGGACCGGUACGGCCGCCACUCGUAUAGCUGGAAUGACUGUGCGAGGGUUUGU | 960 nM | 514 nM | 905 nM | 522 nM | 790 nM
CUGACUCAAUAGUCAGUGAUGUUGACUGGACGAGGACCGGUACGGCCGCCACUCGAGAGUGGUGUAAAAUAUGUCACAGAGUCAG [Tryp A SS t3b] | 186 nM | 194 nM | 208 nM | 182 nM | 200 nM
CUGCAACAUAACUUCUUCGUCCUAGAAGACUAGGAUAUCAGGAAACUGAGAAGGAGUCUCUGCAGUGAUGUUGCAGCUAGGACGA [[K]'-[F2]'-[F1]'-[F1]-[F2]-[K1]-[K2]-[F]''_Design3] | 195 nM | 159 nM | 148 nM | 197 nM | 173 nM
CUGGGUUGACGAAAAGUCAACAAAAGAGAAGGAGCGCACGAAAGUGCAGGUAGGUCGCUCAGUCCAGUGAUGUUGGAUCAUCCAG [#SwitchBubble 11 #K4Late] | 324 nM | 502 nM | 484 nM | 454 nM | 346 nM
CUGUUUGGUUGAGAGGUUGGGCGGAAUGAUACCAGUAUAUAAGAAUACCCUUGGCAGCAUAAGAAAGAUAUAGUGAUGUUGUAUA [SSTheophA.K] | 526 nM | 297 nM | 464 nM | 536 nM | 417 nM
CUUAGGAGUGGUGUUGAUUAGGGAGCGGAAGGAGCGCCAAUGAUGGCAGGUAGGUCGCCGGAAUAUAGUGAUGUUAUAUAGAGGG [ExArgA.Q] | 273 nM | 252 nM | 592 nM | 290 nM | 222 nM
CUUAUGGCGUUUGGAAGGAGCGGCUCAUCACGAGGACCGGUACGGCCGCCACUCGAGAGAGCAUAAGAAAGUGAUGUUUUCGGUU [theeternabot_sameState_KL_Trp_A_44] | 517 nM | 415 nM | 496 nM | 395 nM | 314 nM
CUUCGAUUAACGGAUACCAGUCACUUGGGAGCCACACACAAGUGAGUGAUGUUCACUUGUGACCCUUGGCAGCCGUUAGUCGAAG [#05 K4 Theophylline B Exclusion] | 106 nM | 85 nM | 99.4 nM | 157 nM | 97.9 nM
CUUGGAAGGACGGCCGCCACUGGGCAGUGAUGUUGCCCGAGUUGGUAACGCAGUGAUGUUGCGUCCAGGACCGGGUCCUAGGAAU [Exclusion Tryptophan B GF 25] | 141 nM | 113 nM | 112 nM | 106 nM | 139 nM
GAAUAAUAAGUAGCAGUGAUGUUGCUACUACGAGGACCGGUACGGCCGCCACUCGAAUACGAGUGGACACUGCUACUACCACUCG [(H1)-(H2)-(Trp1)-(Trp2)-(T)'-(H)'-(T)''_Design8] | 121 nM | 118 nM | 121 nM | 122 nM | 170 nM
GAAUCAUGUAGAAGGAGCGUUAGAAGUUAUAGGGAUGAGUGAUGUUUGUGUUAGUAAAUCUGACAGGUAGGUCGCUACAGAAGGA [KL-SSArg B21 #analogue] | 712 nM | 258 nM | 607 nM | 132 nM | 308 nM
GAAUUAUGUAGAAGGAGCGUCAGAAGGUAUAGGUGCGAGUGAUGUUUGGACCUGUUAAUUUGACAGGUAGGUCGCUACAGAAGGA [KL-SSArg B20 #analogue] | 533 nM | 291 nM | 448 nM | 304 nM | 320 nM
GAGAUGCACCAGUCUUAACGUGACUUAUCCCGAGGACCGGUACGGCCGCCACUCGCGUACUACUAGUGAUGUUGGUCAGUAUGAG [theeternabot_sameState_KL_Trp_A_26] | 244 nM | 185 nM | 215 nM | 223 nM | 235 nM
GAGCCAGAGGUUGCUGCGGGUUUCAGAGAUACCAGCCGUAUUGUAGGCCCUUGGCAGCUCGAGUGAUGUUCGAGCCGCCUCUGGC [Eredorxela] | 111 nM | 102 nM | 120 nM | 129 nM | 109 nM
GAGGAUAGCGGAAGGAGCGAGUAAUGGAGUGAUGUUCCAAUCAAUAAAACACGAUAGAGUGCUCAGGUAGGUCGCCGUGGUGGUU [Exclusion Argiie B GF 13] | 124 nM | 143 nM | 165 nM | 277 nM | 111 nM
GAGGUGCUGAUGCGGUGGCCGGUGGUCGUGCGAGGACCGGUACGGCCGCCACUCGCAUGAGUGAUGUUCAUGUGUCGUCGUCGUC [whbob_EX_Tryp_A_t3] | 172 nM | 104 nM | 132 nM | 117 nM | 172 nM
GAUAUAUAUAGAGGAUAUAGCAGGUGAUACAAGAAAGUGAGUGAUGUUUAUGUAGAUGAUGAUAUGUUAGAAGGCUAUAUAUAUC [radioactive7-modED1598] | 844 nM | 736 nM | 766 nM | 723 nM | 706 nM
GAUUAAUAAGAGGAUACCAGUACAAAUAAAGUACAUUAAUAGUAGAGUGAUGUUCUAAAGUACCCUUGGCAGCUUAGAGUAAGUU [ExTheophylB.A] | 119 nM | 207 nM | 174 nM | 226 nM | 94.4 nM
GAUUCAGUGAUGUUGGAAGGCGAGCGGGAUACCAGCCAAGACUCAGGCCCUUGGCAGCCCACAUAUCCCAGGUAGAUAGUCGCUC [Same State - Theophylline A (Freestyle 11)] | 271 nM | 265 nM | 254 nM | 293 nM | 270 nM
GCAGUGAUGUUGCACGAGUAGGCUGGAGUACGAGGACCGGUACGGCCGCCACUCGUACGAUAGUCGCUAAUUUAUGGAAUGGUGA [#08 K4 Tryptophan A Same State] | 458 nM | 381 nM | 551 nM | 286 nM | 419 nM
GCAGUGAUGUUGCACGAGUAGGCUGGAGUACGAGGACCGGUACGGCCGCCACUCGUACGGAAGUCGCUAAUUUAUGGAAUGGUGA [#06 K4 Tryptophan A Same State] | 592 nM | 381 nM | 341 nM | 413 nM | 436 nM

Sequence | apparent KD of K4 kissing-loop reporter (input ligand: FMN 200 uM) | apparent KD of K4 kissing-loop reporter (input ligand: arginine 13.2 mM) | apparent KD of K4 kissing-loop reporter (input ligand: none) | apparent KD of K4 kissing-loop reporter [1] | apparent KD of K4 kissing-loop reporter [2]
GCAUCCAUGUGAGGAUAUCGAGACGAGUGAUGUUCGGGCACCAGACAGGGAGACCUGUCAAUGGCUUGAGAAGGCACAUGGAUGC | 231 nM | 196 nM | 249 nM | 199 nM | 217 nM
GCAUCCUAGUCGGCCGCCACUGACAUGAGUGAUGUUCAUGUUCGUCAGUGAUGUUGACGUUGUUACAGGACCGGGACUAGGAUGC [KL-SSTryp-B8 Brourdwalk4 #Double KL] | 169 nM | 143 nM | 165 nM | 150 nM | 119 nM
GCAUGGGUGCUUGCACAAGUGAUGUUUGGGCGAGGACCGGUACGGCCGCCACUCGUACGUUUAGUUAAAAGACAUCAUGCGAGUC [theeternabot_exclusion_KL_Trp_A_11] | 291 nM | 246 nM | 356 nM | 339 nM | 164 nM
GCCAGAGCGCGAAGGAGCGCCCUGACAGGUUGCUGCCGUGGGCAGUGAUGUUGCUCAGUCCGGCAGGUAGGUCGCGUGCUCUGGC | 222 nM | 165 nM | 193 nM | 196 nM | 174 nM
GCCAGUGAUGUUGGCAUUUCGAGCCAUGAAGGAGCGCACGGAAGUGCAGGUAGGUCGCAUGGUACUUAGGAUAUUACCCUAAGUA [Isterare] | 206 nM | 177 nM | 212 nM | 200 nM | 161 nM
GCCGUAGAUUGAAGGAGCGGUUCAUCAAUUCAAGUCGAGUGAUGUUCGACGAUUCUCAGUAACCAGGUAGGUCGCAAUCUACGGC | 175 nM | 142 nM | 150 nM | 171 nM | 143 nM
GCCUAGCAGGGAAGGAGCGCCAUAAGAAGUAAAGGAGGGAGUUGAGUGAUGUUCAAAAUGUGGCAGGUAGGUCGCCCUGCUAGGC [KL-SSArg B13] | 705 nM | 388 nM | 635 nM | 490 nM | 507 nM
GCGCCGGUCUGCUUUAGAGUGAUGUUCUCCCGAGGACCGGUACGGCCGCCACUCGGCCAACGCUAUUAUCUUUGAUCCGCGGUGC [theeternabot_exclusion_KL_Trp_A_41] | 1300 nM | 840 nM | 1000 nM | 1120 nM | 948 nM
GCGCGGCAGGCGGCCGCCACUCUGACGAGCCACAGUGAUGUUGUGGUCGGAGAAACGUCUUCAUAGAGGACCGGGUUUGUUGUUC [Same State Typtophan A GF 25] | 215 nM | 186 nM | 226 nM | 189 nM | 177 nM
GCGCGUCAUGUCAGCGGAGACACUGUCGAUACCAGCGCCGCAAGGCGCCCUUGGCAGCGACGCGCUGGAGUGAUGUUCCAGCGUG [#2 Exclusion - Theophylline A Attempt #15 (HarryS)] | 171 nM | 154 nM | 148 nM | 143 nM | 159 nM
GCUAAGGAGUGAUGUUCCAAGUGAUGUUAACGAGGACCGGUACGGCCGCCACUCGAUACGGCCGGAAAGUAAGAUAAACUACAGU [Same State - Tryptophan A (Freestyle 4)] | 77.5 nM | 59.8 nM | 77.1 nM | 75.8 nM | 64.7 nM
GCUAAGUGAUGUUUAUGCCGCCGACCGGAUACCAGCUACUAGGCAAGCCCUUGGCAGCCGCUAUGUGACCGAUCAUUAGUUAUGU [theeternabot_exclusion_KL_Theo_A_6] | 857 nM | 734 nM | 913 nM | 790 nM | 682 nM
GCUACCUAGGCAGGAUAUAGACAUUGAGUGAUGUUCGAUGAUUAUCCAUAUUCCCGUCACAUAUGACUAGAAGGGCCUAGGUAGC | 660 nM | 184 nM | 221 nM | 228 nM | 211 nM
GCUAUCUGAGCCCAGUGAUGUUGAGUGCUGAAGGAUAUGCGAUAGAGCAGAAGGUCAAGAACAUUGUUCGAUUAUCAAAACAAGU [theeternabot_exclusion_KL_FMN_A_35] | 264 nM | 264 nM | 272 nM | 356 nM | 328 nM
GCUAUGGUAGGAAGGAGCGCUUACUCGGUCAUAAGAGUGAUGUUCGAGACCGAGUAUUUAUAGCAGGUAGGUCGCCUACUAUAGC [Arginine B K4 6] | 68 nM | 124 nM | 2.37 nM | 199 nM | 352 nM
GGAAUAACCUGGGAUACCAGUCGGAGGACUAGGGAUCGGAGUGAUGUUCUGGGAUGUUUCGGCCCUUGGCAGCUCUGGUUUUCCG [#2 Exclusion - Theophylline B Attempt #1 (HarryS)] | 569 nM | 286 nM | 551 nM | 614 nM | 443 nM
GGACGCCGGUCGGCCGCCACUCACAGCAGCCAGUGAUGUUGGAUUGUAGCGGAGUGAUGUUCCGAGAGGACCGGGACUGCAGUCU [Same State Tryptophan B GF 11] | 161 nM | 135 nM | 153 nM | 114 nM | 137 nM
GGACGCCGGUCGGCCGCCACUCACAGCAGUGAUGUUCCUGAGAAUGUAGCGGAGUGAUGUUCCGAGAGGACCGGGACUGCAGUUU [Same State Tryptophan B GF 8] | 799 nM | 644 nM | 777 nM | 875 nM | 840 nM
GGAGCCGAUAGUGAUACCAGCCAGUGAUGUUGGCGAAGUCUCAUUUUCGCUCUCGGUAAGGGCCCUUGGCAGCACUUACUCGGAA [Arledied] | 105 nM | 94 nM | 102 nM | 95.9 nM | 104 nM
GGAGGAGAAUAUGAUACCAGCAGAGAGAGAGAGGAAGUAUAGUGAUGUUAUAUGAGAGAAUGCCCUUGGCAGCAUAAGACGCAGG [#07 K4 Theophylline B Same State] | 194 nM | 114 nM | 110 nM | 144 nM | 94.7 nM
GGAGGGAUCUCGGCCGCCACUCAUAAGAAAUGGGCCUCAGAAAUAUAGUGAUGUUAUGUAAAGAAGAGGACCGGGAGAAAGAAGG [ExTryptoB.Da] | 390 nM | 202 nM | 324 nM | 218 nM | 242 nM

Reference: the supplement of paper PMC9170038
